# Reference: patent US20260028403A1 (Zymeworks, published 2026)
# Numbering of substitutions follows the chain as printed. In names and notes the source's numbering stands.
# B1: v37879 (antibody, V domains shown)
# VH: QVQLQESGPGLVKPSETLSLTCAVSGFSLTSYGVHWIRQPPGKGLEWLGVIWPGGGTNFNSALMSRLTISEDTSKNQVSLKLSSVTAADTAVYYCARDRAYGNYLYAMDYWGQGTLVTVSS
# VL: DIQMTQSPSSLSASVGDRVTITCRASESVEYYVTSLMQWYQQKPGKAPKLLIYAASNVDSGVPSRFSGSGSGTDFTLTISSLQPEDIATYYCQQSRKAPFTFGGGTKVEIK
# notes: OAA format as v34891; also called huTN228 V1114A (VL) OAA
# B2: v37882 (antibody, V domains shown)
# VH: B1 VH with S31T
# VL: B1 VL with A98V
# notes: OAA format as v34891; also called huTN228 S1036T (VH) OAA
# B3: v37883 (antibody, V domains shown)
# VH: B1 VH with N103Q
# VL: B1 VL with A98V
# notes: OAA format as v34891; also called huTN228 N1111AQ (VH) OAA
# B4: v37884 (antibody, V domains shown)
# VH: B1 VH with L105I
# VL: B1 VL with A98V
# notes: OAA format as v34891; also called huTN228 L1112AI (VH) OAA
# B5: v37888 (antibody, V domains shown)
# VH: B1 VH
# VL: B1 VL with N57Q, A98V
# notes: OAA format as v34891; also called huTN228 N1066Q (VL) OAA
# B6: v37890 (antibody, V domains shown)
# VH: B1 VH with A23T
# VL: B1 VL with A98V
# notes: OAA format as v34891; also called huTN228 A1024T (VH) OAA
# B7: v37891 (antibody, V domains shown)
# VH: B1 VH with L48I
# VL: B1 VL with A98V
# notes: OAA format as v34891; also called huTN228 L1053I (VH) OAA
# B8: v37897 (antibody, V domains shown)
# VH: B1 VH with V78F
# VL: B1 VL with A98V
# notes: OAA format as v34891; also called huTN228 V1087F (VH) OAA
# B9: v37898 (antibody, V domains shown)
# VH: B1 VH
# VL: B1 VL with M37L, Q38N, A98V
# notes: OAA format as v34891
# B10: v37636 (trispecific antibody, human IgG1, lambda, L234A L235A)
# heavy 1: QVQLVESGGGLVQPGGSLRLSCSVSGIDLSSNPMIWVRQAPGKGLQYIGIIDTDGSTYYADWAKGRFTISKDSTTVYLQINSPRAEDTAVYYCARRLHGSSNGYYDDLWGQGTLVTVSSGGGGSGGGGSGGGGSGGGGSDGQMTQSPSSVSASVGDRVTITCQASQSIYSYLSWYQQKPGQRPKLLIYKASTLASGVPSRFSGSGSGTDFTLTISSVQPEDFATYYCQQGYTVTNVDKNTFGGGTKVEIKGGGGSGEVQLVESGGGLVQPGGSLRLSCAASGVTFNYYGMSWIRQAPGKGLEWVASITSSGGRIYYPDSVKGRFTISRENTQKTLYLQMNSLRAEDTAVYYCTLDGRDGWVAYWGQGTLVTVSSASTKGPSVFPLAPSSKSTSGGTAALGCLVKDYFPEPVTVSWNSGALTSGVHTFPAVLQSSGLYSLSSVVTVPSSSLGTQTYICNVNHKPSNTKVDKKVEPKSCDKTHTCPPCPAPEAAGGPSVFLFPPKPKDTLMISRTPEVTCVVVSVSHEDPEVKFNWYVDGVEVHNAKTKPREEQYNSTYRVVSVLTVLHQDWLNGKEYKCKVSNKALPAPIEKTISKAKGQPREPQVYVYPPSRDELTKNQVSLTCLVKGFYPSDIAVEWESNGQPENNYKTTPPVLDSDGSFALVSKLTVDKSRWQQGNVFSCSVMHEALHNHYTQKSLSLSPGGGGGSGDIQMTQSPSSLSASVGDRVTITCRASESVEYYVTSLMQWYQQKPGKAPKLLIYAASNVDSGVPSRFSGSGSGTDFTLTISSLQPEDIATYYCQQSRKVPFTFGGGTKVEIKGGGGSGGGGSGGGGSGGGGSQVQLQESGPGLVKPSETLSLTCAVSGFSLTSYGVHWIRQPPGKGLEWLGVIWPGGGTNFNSALMSRLTISEDTSKNQVSLKLSSVTAADTAVYYCARDRAYGNYLYAMDYWGQGTLVTVSS
# heavy 2: EPKSSDKTHTCPPCPAPEAAGGPSVFLFPPKPKDTLMISRTPEVTCVVVSVSHEDPEVKFNWYVDGVEVHNAKTKPREEQYNSTYRVVSVLTVLHQDWLNGKEYKCKVSNKALPAPIEKTISKAKGQPREPQVYVLPPSRDELTKNQVSLLCLVKGFYPSDIAVEWESNGQPENNYLTWPPVLDSDGSFFLYSKLTVDKSRWQQGNVFSCSVMHEALHNHYTQKSLSLSPG
# light: NFMLTQPHSVSESPGKTVTISCKRNTGNIGSNYVNWYQQHEGSSPTTIIYRNDKRPDGVSDRFSGSIDRSSKSASLTISNLKTEDEADYFCQSYSSGFIFGGGTKLTVLGQPKAAPSVTLFPPSSEELQANKATLVCLISDFYPGAVTVAWKADSSPVKAGVETTTPSKQSNNKYAASSYLSLTPEQWKSHRSYSCQVTHEGSTVEKTVAPTECS
# notes: second heavy chain is Fc only; Het Fc, FcKO; also called Cldn18.2xCD3xCD28 trispecific
# B11: v37664 (bispecific antibody)
# heavy: QVQLVESGGGLVQPGGSLRLSCSVSGIDLSSNPMIWVRQAPGKGLQYIGIIDTDGSTYYADWAKGRFTISKDSTTVYLQINSPRAEDTAVYYCARRLHGSSNGYYDDLWGQGTLVTVSSGGGGSGGGGSGGGGSGGGGSDGQMTQSPSSVSASVGDRVTITCQASQSIYSYLSWYQQKPGQRPKLLIYKASTLASGVPSRFSGSGSGTDFTLTISSVQPEDFATYYCQQGYTVTNVDKNTFGGGTKVEIKGGGGSGEVQLVESGGGLVQPGGSLRLSCAASGVTFNYYGMSWIRQAPGKGLEWVASITSSGGRIYYPDSVKGRFTISRENTQKTLYLQMNSLRAEDTAVYYCTLDGRDGWVAYWGQGTLVTVSSASTKGPSVFPLAPSSKSTSGGTAALGCLVKDYFPEPVTVSWNSGALTSGVHTFPAVLQSSGLYSLSSVVTVPSSSLGTQTYICNVNHKPSNTKVDKKVEPKSCDKTHTCPPCPAPEAAGGPSVFLFPPKPKDTLMISRTPEVTCVVVSVSHEDPEVKFNWYVDGVEVHNAKTKPREEQYNSTYRVVSVLTVLHQDWLNGKEYKCKVSNKALPAPIEKTISKAKGQPREPQVYVLPPSRDELTKNQVSLLCLVKGFYPSDIAVEWESNGQPENNYLTWPPVLDSDGSFFLYSKLTVDKSRWQQGNVFSCSVMHEALHNHYTQKSLSLSPG
# light: B10 light
# Fc: not shown
# notes: also called anti-(CLDN18.2xCD3) bispecific control
# B12: v37667 (bispecific antibody)
# heavy 1: not shown
# heavy 2: QVQLVESGGGLVQPGGSLRLSCSVSGIDLSSNPMIWVRQAPGKGLQYIGIIDTDGSTYYADWAKGRFTISKDSTTVYLQINSPRAEDTAVYYCARRLHGSSNGYYDDLWGQGTLVTVSSGGGGSGGGGSGGGGSGGGGSDGQMTQSPSSVSASVGDRVTITCQASQSIYSYLSWYQQKPGQRPKLLIYKASTLASGVPSRFSGSGSGTDFTLTISSVQPEDFATYYCQQGYTVTNVDKNTFGGGTKVEIKAAEPKSSDKTHTCPPCPAPEAAGGPSVFLFPPKPKDTLMISRTPEVTCVVVSVSHEDPEVKFNWYVDGVEVHNAKTKPREEQYNSTYRVVSVLTVLHQDWLNGKEYKCKVSNKALPAPIEKTISKAKGQPREPQVYVLPPSRDELTKNQVSLLCLVKGFYPSDIAVEWESNGQPENNYLTWPPVLDSDGSFFLYSKLTVDKSRWQQGNVFSCSVMHEALHNHYTQKSLSLSPG
# light: B10 light
# notes: bivalent for CD3; also called 2x1 anti-(CD3xCD3xCLDN18.2) control
# B13: v37669 (bispecific antibody)
# heavy 1: EVQLVESGGGLVQPGGSLRLSCAASGVTFNYYGMSWIRQAPGKGLEWVASITSSGGRIYYPDSVKGRFTISRENTQKTLYLQMNSLRAEDTAVYYCTLDGRDGWVAYWGQGTLVTVSSASTKGPSVFPLAPSSKSTSGGTAALGCLVKDYFPEPVTVSWNSGALTSGVHTFPAVLQSSGLYSLSSVVTVPSSSLGTQTYICNVNHKPSNTKVDKKVEPKSCDKTHTCPPCPAPEAAGGPSVFLFPPKPKDTLMISRTPEVTCVVVSVSHEDPEVKFNWYVDGVEVHNAKTKPREEQYNSTYRVVSVLTVLHQDWLNGKEYKCKVSNKALPAPIEKTISKAKGQPREPQVYVYPPSRDELTKNQVSLTCLVKGFYPSDIAVEWESNGQPENNYKTTPPVLDSDGSFALVSKLTVDKSRWQQGNVFSCSVMHEALHNHYTQKSLSLSPGGGGGSGNFMLTQPHSVSESPGKTVTISCKRNTGNIGSNYVNWYQQHEGSSPTTIIYRNDKRPDGVSDRFSGSIDRSSKSASLTISNLKTEDEADYFCQSYSSGFIFGGGTKLTVLGGGGSGGGGSGGGGSGGGGSEVQLVESGGGLVQPGGSLRLSCAASGVTFNYYGMSWIRQAPGKGLEWVASITSSGGRIYYPDSVKGRFTISRENTQKTLYLQMNSLRAEDTAVYYCTLDGRDGWVAYWGQGTLVTVSS
# heavy 2: B12 heavy 2
# light: B10 light
# notes: as for B12
# B14: v37665 (bispecific antibody, human IgG1, kappa, L234A L235A)
# heavy 1: not shown
# heavy 2: B12 heavy 2
# light: DIQMTQSPSSLSASVGDRVTITCRASESVEYYVTSLMQWYQQKPGKAPKLLIYAASNVDSGVPSRFSGSGSGTDFTLTISSLQPEDIATYYCQQSRKVPFTFGGGTKVEIKRTVAAPSVFIFPPSDEQLKSGTASVVCLLNNFYPREAKVQWKVDNALQSGNSQESVTEQDSKDSTYSLSSTLTLSKADYEKHKVYACEVTHQGLSSPVTKSFNRGEC
# notes: 13B08 VH-VL scFv); also called anti-(CLDN18.2xCD28) bispecific control
# B15: v37666 (bispecific antibody, human IgG1, kappa, L234A L235A)
# heavy 1: not shown
# heavy 2: B10 heavy 2
# light: B14 light
# notes: Fc without paratope; also called anti-(CLDN18.2xCD28) bispecific control
# Target: huCD28 (human, UniProt P10747 19-152, limits assumed)
# Experiment: SPR, OAA format
Binder,Fold-change from WT [fold],Kd [nM],koff [s⁻¹],kon [M⁻¹ s⁻¹]
B1,0.39,34.7,0.00174,50300
B2,0.59,51.7,0.00311,60500
B3,3.81,335,0.029,86800
B4,1.51,133,0.00993,76000
B5,0.61,53.8,0.00319,59200
B6,0.66,57.8,0.00349,60800
B7,0.54,47.7,0.0028,58800
B8,0.88,77.4,0.00487,63000
B9,0.84,73.7,0.00573,77900

# Target: T1, Recombinant human CD3 epsilon/delta heterodimer, his tag protein (Acro Biosystems) (human, UniProt P07766 23-126; P04234 22-105)
# T1 construct: bought
# Experiment: SPR Biacore T200, CD3 e/d-his on CM5, construct injected, 1:1 model;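 further: measured at 25 °C in HEPES-buffered saline with EDTA and Tween 20 at pH 7.4, values are means of three independent runs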
Binder,Kd [nM],koff [s⁻¹],kon [M⁻¹ s⁻¹]
B10,160,0.021,134000
B11,127,0.0228,180000
B12,5.93,0.00778,1.28e+06
B13,4.38,0.00255,589000

# Target: T2, Recombinant human/cynomolgus/rhesus macaque CD28 mouse IgG2a Fc fusion protein (Acro Biosystems) (human/cynomolgus/rhesus macaque, UniProt P10747 19-152)
# T2 construct: bought; also called huCD28
# Experiment: SPR Biacore T200, CD28-mIgG2a Fc on CM5, construct injected, 1:1 model;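 further: fc fusion captured by amine coupling, run at 25 °C in HEPES buffer pH 7.4, association 140-500 s then dissociation 600-1200 s, values averaged over three independent runs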
Binder,Kd [nM],koff [s⁻¹],kon [M⁻¹ s⁻¹]
B10,434,0.0132,30400
B14,25.1,0.00224,89400
B15,32.4,0.00217,67300
